In patent publication US20120244164A1 (published 2012):

B1: A007900184 (33H10-3xFLAG-His6) (VHH)
VHH: EVQLVESGGGLVQAGGSLRLSCAASGFTFDDYAIGWFRQAPGEEREGVSSISSTYGLTYYADSVKGRFTISSSNAKNTVYLQMNNLKPEDTAVYYCAATPIERLGLDAYEYDYWGQGTLVTVSS
notes: the entry holds the tag; also called A007900184 (wt)
B2: A007901248 (VHH)
VHH: EVQLVESGGGLVQPGGSLRLSCAASGFAFDDYAIGWFRQAPGKEREGVSSISSTYGLTYYADSVKGRFTISSDNSKNTVYLQMNSLRPEDTAVYYCAATPIGLIGLDAYEYDYWGQGTLVTVSS
notes: 33H10 variant, 3xFLAG-His6 tagged; the entry holds the tag
B3: A007900751 (VHH)
VHH: EVQLVESGGGLVQPGGSLRLSCAASGFTFDDYAIGWFRQAPGKEREGVSSISSTYGLTYYADSVKGRFTISRDNSKNTVYLQMNNLKPEDTAVYYCAATPIERLGLDAYEYDYWGQGTLVTVSS
notes: 33H10 variant; the entry holds the 3xFLAG-His6 tag
B4: A007900743 (VHH)
VHH: EVQLVESGGGLVQPGGSLRLSCAASGFTFDDYAIGWFRQAPGEEREGVSSISSTYGLTYYADSVKGRFTISRDNSKNTVYLQMNNLKPEDTAVYYCAATPIERLGLDAYEYDYWGQGTLVTVSS
notes: as for B3
B5: A007901250 (VHH)
VHH: EVQLVESGGGLVQPGGSLRLSCAASGFAFDDYAIGWFRQAPGEERLGVSSISSTYGLTYYADSVKGRFTISSDNSKNTVYLQMNSLRPEDTAVYYCAATPIGLIGLDAYEYDYWGQGTLVTVSS
notes: 33H10 variant, 3xFLAG-His6 tagged; the entry holds the tag; also called monovalent form of A007901260
B6: A007900748 (VHH)
VHH: EVQLVESGGGLVQPGGSLRLSCAASGFTFDDYAIGWFRQAPGKEREGVSSISSTYGLTYYADSVKGRFTISSDNSKNTVYLQMNNLKPEDTAVYYCAATPIERLGLDAYEYDYWGQGTLVTVSS
notes: as for B3
B7: A007900753 (VHH)
VHH: EVQLVESGGGLVQPGGSLRLSCAASGFTFDDYAIGWFRQAPGKEREGVSSISSTYGLTYYADSVKGRFTISRDNSKNTVYLQMNSLKPEDTAVYYCAATPIERLGLDAYEYDYWGQGTLVTVSS
notes: as for B3
B8: A007900752 (VHH)
VHH: EVQLVESGGGLVQPGGSLRLSCAASGFTFDDYAIGWFRQAPGKEREGVSSISSTYGLTYYADSVKGRFTISRSNSKNTVYLQMNSLKPEDTAVYYCAATPIERLGLDAYEYDYWGQGTLVTVSS
notes: as for B3
B9: A007900739 (VHH)
VHH: EVQLVESGGGLVQPGGSLRLSCAASGFTFDDYAIGWFRQAPGEEREGVSSISSTYGLTYYADSVKGRFTISSSNSKNTVYLQMNSLKPEDTAVYYCAATPIERLGLDAYEYDYWGQGTLVTVSS
notes: as for B3
B10: A007900746 (VHH)
VHH: EVQLVESGGGLVQPGGSLRLSCAASGFTFDDYAIGWFRQAPGKEREGVSSISSTYGLTYYADSVKGRFTISSSNSKNTVYLQMNNLKPEDTAVYYCAATPIERLGLDAYEYDYWGQGTLVTVSS
notes: as for B3
B11: A007900742 (VHH)
VHH: EVQLVESGGGLVQPGGSLRLSCAASGFTFDDYAIGWFRQAPGEEREGVSSISSTYGLTYYADSVKGRFTISRSNSKNTVYLQMNNLKPEDTAVYYCAATPIERLGLDAYEYDYWGQGTLVTVSS
notes: as for B3
B12: A007901251 (VHH)
VHH: EVQLVESGGGLVQPGGSLRLSCAASGFTFDDYAIGWFRQAPGKERLGVSSISSTYGLTYYADSVKGRFTISSDNSKNTVYLQMNSLRPEDTAVYYCAATPIGLIGLDAYEYDYWGQGTLVTVSS
notes: as for B2
B13: A007901253 (VHH)
VHH: EVQLVESGGGLVQPGGSLRLSCAASGFTFDDYAIGWFRQAPGEEREGVSSISSTYGLTYYADPVKGRFTISSDNSKNTVYLQMNSLRPEDTAVYYCAATPIGLIGLDAYEYDYWGQGTLVTVSS
notes: as for B2
B14: A007901246 (VHH)
VHH: EVQLVESGGGLVQPGGSLRLSCAASGFAFDDYAIGWFRQAPGEEREGVSSISSTYGLTYYADSVKGRFTISSDNSKNTVYLQMNSLRPEDTAVYYCAATPIGLIGLDAYEYDYWGQGTLVTVSS
notes: 33H10 variant, 3xFLAG-His6 tagged; the entry holds the tag; also called monovalent form of A007901256
B15: A007900740 (VHH)
VHH: EVQLVESGGGLVQPGGSLRLSCAASGFTFDDYAIGWFRQAPGEEREGVSSISSTYGLTYYADSVKGRFTISSDNSKNTVYLQMNNLKPEDTAVYYCAATPIERLGLDAYEYDYWGQGTLVTVSS
notes: as for B3
B16: A007900750 (VHH)
VHH: EVQLVESGGGLVQPGGSLRLSCAASGFTFDDYAIGWFRQAPGKEREGVSSISSTYGLTYYADSVKGRFTISRSNSKNTVYLQMNNLKPEDTAVYYCAATPIERLGLDAYEYDYWGQGTLVTVSS
notes: as for B3
B17: A007900741 (VHH)
VHH: EVQLVESGGGLVQPGGSLRLSCAASGFTFDDYAIGWFRQAPGEEREGVSSISSTYGLTYYADSVKGRFTISSDNSKNTVYLQMNSLKPEDTAVYYCAATPIERLGLDAYEYDYWGQGTLVTVSS
notes: as for B3
B18: A007900745 (VHH)
VHH: EVQLVESGGGLVQPGGSLRLSCAASGFTFDDYAIGWFRQAPGEEREGVSSISSTYGLTYYADSVKGRFTISRDNSKNTVYLQMNSLKPEDTAVYYCAATPIERLGLDAYEYDYWGQGTLVTVSS
notes: as for B3
B19: A007900749 (VHH)
VHH: EVQLVESGGGLVQPGGSLRLSCAASGFTFDDYAIGWFRQAPGKEREGVSSISSTYGLTYYADSVKGRFTISSDNSKNTVYLQMNSLKPEDTAVYYCAATPIERLGLDAYEYDYWGQGTLVTVSS
notes: as for B3
B20: A007901249 (VHH)
VHH: EVQLVESGGGLVQPGGSLRLSCAASGFTFDDYAIGWFRQAPGEERLGVSSISSTYGLTYYADSVKGRFTISSDNSKNTVYLQMNSLRPEDTAVYYCAATPIGLIGLDAYEYDYWGQGTLVTVSS
notes: 33H10 variant, 3xFLAG-His6 tagged; the entry holds the tag; also called monovalent form of A007901259
B21: A007901252 (VHH)
VHH: EVQLVESGGGLVQPGGSLRLSCAASGFAFDDYAIGWFRQAPGKERLGVSSISSTYGLTYYADSVKGRFTISSDNSKNTVYLQMNSLRPEDTAVYYCAATPIGLIGLDAYEYDYWGQGTLVTVSS
notes: as for B2
B22: A007901247 (VHH)
VHH: EVQLVESGGGLVQPGGSLRLSCAASGFTFDDYAIGWFRQAPGKEREGVSSISSTYGLTYYADSVKGRFTISSDNSKNTVYLQMNSLRPEDTAVYYCAATPIGLIGLDAYEYDYWGQGTLVTVSS
notes: as for B2
B23: A007900738 (VHH)
VHH: EVQLVESGGGLVQPGGSLRLSCAASGFTFDDYAIGWFRQAPGEEREGVSSISSTYGLTYYADSVKGRFTISSSNSKNTVYLQMNNLKPEDTAVYYCAATPIERLGLDAYEYDYWGQGTLVTVSS
notes: as for B3
B24: A007901245 (VHH)
VHH: EVQLVESGGGLVQPGGSLRLSCAASGFTFDDYAIGWFRQAPGEEREGVSSISSTYGLTYYADSVKGRFTISSDNSKNTVYLQMNSLRPEDTAVYYCAATPIGLIGLDAYEYDYWGQGTLVTVSS
notes: 33H10 variant, 3xFLAG-His6 tagged; the entry holds the tag; also called monovalent form of A007901255
B25: A007900747 (VHH)
VHH: EVQLVESGGGLVQPGGSLRLSCAASGFTFDDYAIGWFRQAPGKEREGVSSISSTYGLTYYADSVKGRFTISSSNSKNTVYLQMNSLKPEDTAVYYCAATPIERLGLDAYEYDYWGQGTLVTVSS
notes: as for B3
B26: A00790068 (VHH)
VHH: EVQLVESGGGLVQPGGSLRLSCAASGFILDYYAIGWFRQAPGKEREGVLCIDASDDITYYADSVKGRFTISRDNSKNTVYLQMNSLRPEDTGVYYCATPIGLSSSCLLEYDYDYWGQGTLVTVSS
notes: the entry as printed already holds the 3xFLAG-His6 tag; also called 04E09 (A74S, K83R, Q108L)
B27: A007900744 (VHH)
VHH: VQLVESGGGLVQPGGSLRLSCAASGFTFDDYAIGWFRQAPGEEREGVSSISSTYGLTYYADSVKGRFTISRSNSKNTVYLQMNSLKPEDTAVYYCAATPIERLGLDAYEYDYWGQGTLVTVSS
notes: as for B3
B28: A00790067 (VHH)
VHH: VQLVESGGGLVQPGGSLRLSCAASGFILDYYAIGWFRQAPGKEREGVLCIDASDDITYYADSVKGRFTISRDNAKNTVYLQMNSLKPEDTGVYYCATPIGLSSSCLLEYDYDYWGQGTLVTVSS
notes: the entry as printed already holds the 3xFLAG-His6 tag; also called 04E09 (Q108L)

What was measured:
[1] = biological target: T1, recombinant human c-Met/Fc chimera (R&D systems) (human); experiment: HGF-competition Alphascreen
T1 construct: R&D Systems 358-MT/CF, expressed in NS0 cells; also called hc-Met/Fc; hu c-Met/Fc
T1 sequence (chain, as listed by the source mutant limits assumed): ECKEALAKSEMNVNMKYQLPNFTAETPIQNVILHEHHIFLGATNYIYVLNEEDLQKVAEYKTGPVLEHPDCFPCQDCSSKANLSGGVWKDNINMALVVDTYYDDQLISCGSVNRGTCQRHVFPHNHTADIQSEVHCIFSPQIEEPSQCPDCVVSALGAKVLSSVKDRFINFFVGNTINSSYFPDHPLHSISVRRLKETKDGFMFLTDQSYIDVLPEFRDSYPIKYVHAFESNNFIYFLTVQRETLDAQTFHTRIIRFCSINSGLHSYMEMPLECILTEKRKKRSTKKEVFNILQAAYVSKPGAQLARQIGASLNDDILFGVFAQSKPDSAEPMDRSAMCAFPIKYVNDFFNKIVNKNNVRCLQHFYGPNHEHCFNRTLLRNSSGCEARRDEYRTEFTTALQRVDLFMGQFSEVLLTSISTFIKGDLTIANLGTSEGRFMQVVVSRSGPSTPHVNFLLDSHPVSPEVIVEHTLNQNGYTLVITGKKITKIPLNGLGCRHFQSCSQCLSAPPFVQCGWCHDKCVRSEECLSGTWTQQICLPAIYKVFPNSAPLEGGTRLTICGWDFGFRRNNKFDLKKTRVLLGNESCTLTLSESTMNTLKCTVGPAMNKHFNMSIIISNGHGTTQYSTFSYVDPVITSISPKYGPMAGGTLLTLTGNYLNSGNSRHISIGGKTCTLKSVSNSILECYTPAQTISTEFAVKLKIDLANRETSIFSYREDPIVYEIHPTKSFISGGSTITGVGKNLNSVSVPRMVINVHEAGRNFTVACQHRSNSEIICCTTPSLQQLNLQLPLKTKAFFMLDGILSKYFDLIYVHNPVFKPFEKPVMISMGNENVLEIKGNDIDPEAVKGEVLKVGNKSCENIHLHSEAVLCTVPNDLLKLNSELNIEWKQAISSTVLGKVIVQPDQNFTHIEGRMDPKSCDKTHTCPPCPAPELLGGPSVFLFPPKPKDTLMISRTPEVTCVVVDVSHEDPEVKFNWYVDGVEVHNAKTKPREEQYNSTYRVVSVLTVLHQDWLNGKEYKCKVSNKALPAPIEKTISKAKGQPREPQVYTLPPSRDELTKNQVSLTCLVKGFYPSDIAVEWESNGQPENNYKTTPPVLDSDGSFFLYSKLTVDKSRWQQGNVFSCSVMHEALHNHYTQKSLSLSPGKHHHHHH

Human c-Met [2] = biological target: T2, Human c-Met (human, UniProt P08581 25-1390); experiment: cell-based or functional assay
T2 sequence (P08581 25-1390 limits assumed): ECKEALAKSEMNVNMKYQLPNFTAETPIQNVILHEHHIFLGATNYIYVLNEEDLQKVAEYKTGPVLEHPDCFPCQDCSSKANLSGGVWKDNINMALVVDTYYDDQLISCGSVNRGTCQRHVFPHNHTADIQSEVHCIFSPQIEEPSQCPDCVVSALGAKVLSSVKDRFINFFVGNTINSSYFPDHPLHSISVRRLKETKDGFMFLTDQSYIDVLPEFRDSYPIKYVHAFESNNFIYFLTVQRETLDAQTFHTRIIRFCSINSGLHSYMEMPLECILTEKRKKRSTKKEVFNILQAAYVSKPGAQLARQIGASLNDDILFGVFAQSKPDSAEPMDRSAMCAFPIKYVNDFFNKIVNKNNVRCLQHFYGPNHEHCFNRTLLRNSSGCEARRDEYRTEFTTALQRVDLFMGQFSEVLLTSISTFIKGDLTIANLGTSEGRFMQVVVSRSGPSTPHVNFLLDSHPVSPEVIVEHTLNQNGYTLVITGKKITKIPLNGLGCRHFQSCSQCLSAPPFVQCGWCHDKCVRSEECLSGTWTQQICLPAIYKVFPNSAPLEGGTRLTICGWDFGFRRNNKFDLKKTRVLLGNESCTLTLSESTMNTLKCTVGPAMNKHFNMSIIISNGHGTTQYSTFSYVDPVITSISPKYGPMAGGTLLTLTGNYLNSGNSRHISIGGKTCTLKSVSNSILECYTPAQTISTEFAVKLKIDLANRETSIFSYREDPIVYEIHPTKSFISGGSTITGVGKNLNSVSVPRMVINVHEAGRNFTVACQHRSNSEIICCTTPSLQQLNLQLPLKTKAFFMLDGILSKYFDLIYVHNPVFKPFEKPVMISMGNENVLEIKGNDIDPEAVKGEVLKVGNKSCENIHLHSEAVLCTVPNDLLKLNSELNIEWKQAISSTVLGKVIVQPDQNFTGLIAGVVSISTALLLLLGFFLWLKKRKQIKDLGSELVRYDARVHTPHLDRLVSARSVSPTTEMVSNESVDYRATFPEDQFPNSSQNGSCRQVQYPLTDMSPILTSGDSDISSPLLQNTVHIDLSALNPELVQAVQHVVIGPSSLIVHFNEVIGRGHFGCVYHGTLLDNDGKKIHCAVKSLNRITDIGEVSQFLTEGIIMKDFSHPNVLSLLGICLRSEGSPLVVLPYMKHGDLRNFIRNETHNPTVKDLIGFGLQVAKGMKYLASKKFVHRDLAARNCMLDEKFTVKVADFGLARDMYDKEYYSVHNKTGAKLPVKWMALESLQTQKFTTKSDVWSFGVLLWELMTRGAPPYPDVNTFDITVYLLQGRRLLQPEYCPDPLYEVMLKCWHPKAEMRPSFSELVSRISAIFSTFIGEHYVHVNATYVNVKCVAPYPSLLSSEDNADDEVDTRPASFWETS

[3] = biological target: T1, recombinant human c-Met/Fc chimera (R&D …); experiment: HGF-competition Alphascreen; remark: listed apart in the source
[4] = biological target: T1, recombinant human c-Met/Fc chimera (R&D …); experiment: modified HGF-competition Alphascreen: 0.4 nM biotinylated HGF, 0.016 nM cMet/Fc
[5] = biological target: T1, recombinant human c-Met/Fc chimera (R&D …); experiment: HGF-competition Alphascreen, EXP 1, second value
[6] = biological target: T1, recombinant human c-Met/Fc chimera (R&D …); experiment: HGF-competition Alphascreen, EXP 1
Human c-Met [7] = biological target: T2, Human c-Met; experiment: cell-based or functional assay; remark: listed apart in the source

| Binder | IC50 [1] | IC50, cell-based cMet phosphorylation assay (Human c-Met [2]) | IC50 [3] | also measured |
| --- | --- | --- | --- | --- |
| B1 | 0.78 nM | 79 nM | 0.61 nM | – |
| B2 | – | 11.5 nM | 0.17 nM | – |
| B3 | 100 nM | – | – | – |
| B4 | 26 nM | – | – | – |
| B5 | – | 2.34 nM | 0.081 nM | IC50 [4]: 0.035 nM; IC50, cell-based proliferation assay, plate 1 (Human c-Met [2]): 2.29 nM; IC50, cell-based proliferation assay, plate 2 (Human c-Met [2]): 1.32 nM |
| B6 | 3.5 nM | – | – | – |
| B7 | 100 nM | – | – | – |
| B8 | 31 nM | – | – | – |
| B9 | 0.58 nM | – | – | – |
| B10 | 2.5 nM | – | – | – |
| B11 | 8.3 nM | – | – | – |
| B12 | – | 4.98 nM | 0.068 nM | – |
| B13 | – | 4.84 nM | 0.071 nM | – |
| B14 | – | 3.44 nM | 0.089 nM | IC50 [4]: 0.048 nM; IC50, cell-based proliferation assay, plate 1 (Human c-Met [2]): 1.88 nM |
| B15 | 1.1 nM | – | – | – |
| B16 | 42 nM | – | – | – |
| B17 | 0.85 nM | – | – | – |
| B18 | 18 nM | – | – | – |
| B19 | 3.4 nM | – | – | – |
| B20 | – | 2.81 nM | 0.08 nM | IC50 [4]: 0.043 nM; IC50, cell-based proliferation assay, plate 2 (Human c-Met [2]): 1.93 nM |
| B21 | – | 4.16 nM | 0.12 nM | – |
| B22 | – | 12.8 nM | 0.27 nM | – |
| B23 | 0.69 nM | – | – | – |
| B24 | – | 5.41 nM | 0.092 nM | IC50 [4]: 0.091 nM; IC50, cell-based proliferation assay, plate 1 (Human c-Met [2]): 3.69 nM |
| B25 | 2.5 nM | – | – | – |
| B26 | – | – | – | IC50 [5]: 0.072 nM; IC50 [6]: 0.104 nM; IC50, c-Met phosphorylation, EXP 1 (Human c-Met [7]): 1.96 nM |
| B27 | 11 nM | – | – | – |
| B28 | – | – | – | IC50 [5]: 0.069 nM; IC50 [6]: 0.069 nM; IC50, c-Met phosphorylation, EXP 1 (Human c-Met [7]): 2.21 nM |
